Here are results for one substance from publication PMC3795256.

The test addresses recombinant human Prx4 (human) (UniProt Q13162). Kind of test: SPR; ProteOn XPR36; Ero1α (WT) or Prx4 amine-coupled to a GLC chip, PDI or ERp44 as analyte (0.444–36 μM); 25 °C; 20 mM HEPES-NaOH pH 7.4, 150 mM NaCl, 0.001% Tween, 2 mM EDTA; two-state model. On the technique in general: Surface plasmon resonance follows binding to a sensor surface in real time, without labels.

Chain of recombinant human Prx4 (human) (Q13162 38-271): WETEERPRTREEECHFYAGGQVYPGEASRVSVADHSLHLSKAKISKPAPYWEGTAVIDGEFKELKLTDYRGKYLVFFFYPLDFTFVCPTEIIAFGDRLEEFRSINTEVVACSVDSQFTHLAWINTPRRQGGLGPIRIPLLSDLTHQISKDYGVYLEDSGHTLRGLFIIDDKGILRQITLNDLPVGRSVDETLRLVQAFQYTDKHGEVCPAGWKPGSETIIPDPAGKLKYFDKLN
Chain of recombinant human PDI, P07237 18-508 (natural protein; other documents disagree on this pair) (P07237 18-508): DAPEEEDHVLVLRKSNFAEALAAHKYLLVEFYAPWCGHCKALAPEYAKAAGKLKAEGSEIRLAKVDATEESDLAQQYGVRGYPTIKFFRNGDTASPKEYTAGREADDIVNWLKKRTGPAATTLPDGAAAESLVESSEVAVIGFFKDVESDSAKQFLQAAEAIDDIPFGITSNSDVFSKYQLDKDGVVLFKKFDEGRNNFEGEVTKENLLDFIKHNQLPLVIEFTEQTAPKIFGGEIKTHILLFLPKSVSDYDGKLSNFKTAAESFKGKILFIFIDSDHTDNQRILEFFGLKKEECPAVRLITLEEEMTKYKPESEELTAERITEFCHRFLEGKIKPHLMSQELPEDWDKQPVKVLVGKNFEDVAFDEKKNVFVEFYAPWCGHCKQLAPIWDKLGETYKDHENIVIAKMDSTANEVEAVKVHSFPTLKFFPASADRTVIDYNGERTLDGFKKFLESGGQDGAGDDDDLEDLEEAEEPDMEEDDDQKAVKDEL

As to “recombinant human PDI, P07237 18-508 (natural protein; other documents disagree on this pair)”, the Kd was 10.6 µM.

The Kd is the free concentration of one partner at which half of the binding sites on the other are occupied at equilibrium, for simple one-to-one binding.
